Test [1] has as its target T1, human IL-23R expressed on the cell surface of stably transfected iLite and HEK cell lines (human, UniProt Q5VWK5 24-629).
T1 construct: whole, on cells; Same receptor on two transfected cell lines; the cell line is named under assay; also called human IL-23R iLite cells; human IL-23R HEK cells
T1 sequence (looked up): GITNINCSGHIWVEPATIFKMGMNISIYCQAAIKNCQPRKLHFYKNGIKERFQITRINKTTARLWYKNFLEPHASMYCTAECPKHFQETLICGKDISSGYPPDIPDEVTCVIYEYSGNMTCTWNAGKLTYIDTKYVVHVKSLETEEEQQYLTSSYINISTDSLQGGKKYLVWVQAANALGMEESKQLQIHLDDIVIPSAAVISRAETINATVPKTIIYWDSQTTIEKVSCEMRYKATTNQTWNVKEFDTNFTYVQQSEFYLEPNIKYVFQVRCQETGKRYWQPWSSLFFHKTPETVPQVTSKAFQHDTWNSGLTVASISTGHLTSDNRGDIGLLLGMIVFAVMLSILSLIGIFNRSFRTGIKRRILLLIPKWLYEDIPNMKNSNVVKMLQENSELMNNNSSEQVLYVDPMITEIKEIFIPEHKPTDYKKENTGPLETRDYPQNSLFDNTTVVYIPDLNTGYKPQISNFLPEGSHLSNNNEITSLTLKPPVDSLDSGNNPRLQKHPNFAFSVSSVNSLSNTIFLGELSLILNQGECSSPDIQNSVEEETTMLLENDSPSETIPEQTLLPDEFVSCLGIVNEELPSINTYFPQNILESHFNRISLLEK
Briefly: flow cytometry on human IL-23R HEK cells, Expt E (11-point, 384well). How it is done:
HEK-IL-23R cell concentration response mAb binding (11-point, 384-well assay). […] IL-23R mAbs were allowed to bind to cells for 30 minutes, at 37° C. […] Cells were next washed twice in ice-cold stain buffer, then resuspended in a final volume of 10 μL with Sytox Green viability dye (ThermoFisher, Cat #S7020). Plates were kept on ice until run for analysis on the iQue. All washes were performed by centrifugation (800 rcf, 3 minutes) followed by automated aspiration to remove supernatants with plate washers. Cell-binding to HEK-IL-23R cells was measured with FlowJo, by gating for single, viable cells and determining the geometric mean fluorescence intensity (MFI) for the 647 detection antibody. Geometric mean fluorescence intensities were plotted over log mAb concentrations fitted with a dose response curve with variable slope using GraphPad Prism.
Background: In flow cytometry, cells or beads pass a laser one at a time.

Test [2] addresses T1, human IL-23R expressed on the cell …. The experiment in a line: flow cytometry on human IL-23R HEK cells, Expt D (8-point, 96well). As for the experimental part:
HEK-IL-23R cell concentration response mAb binding (8-point, 96-well assay). […] HEK-IL-23R and HEK-parental cells (12.5 μL of each, 120000 cells total) were plated in 2× replicate on 96-well V-bottom plates (Corning, Cat #3357) into 37° C. warmed Assay medium containing serially diluted IL-23R mAbs to a final volume of 150 μL. IL-23R mAbs were allowed to bind to cells for 30 minutes, at 37° C. […] Cells were next washed twice in ice-cold stain buffer, then resuspended in a final volume of 30 μL with Sytox Green viability dye (ThermoFisher, Cat #S7020). Plates were kept on ice until run for analysis on the iQue. All washes were performed by centrifugation (800 rcf, 3 minutes) followed by flick decantation to remove supernatants. Cell-binding to HEK-IL-23R cells was measured with FlowJo, by gating for single, viable cells and determining the geometric mean fluorescence intensity (MFI) for the 647 detection antibody. Geometric mean fluorescence intensities were plotted over log mAb concentrations fitted with a dose response curve with variable slope using GraphPad Prism.

B1: I23RB86 (antibody, mouse IgG2a, kappa, V domains shown)
VH: EVQLQQSGAELVKPGASVKLSCKASGYTFTSYWLHWVKQRPGQGLEWIGEIDPSDSYTYYNQKFKGKATLTVDKSSSTAYMQLSSLTSEDSAVYYCARSPYDYDWGAYWGQGTSVTVSS
VL: DIVMTQSPSSMSVSLGDTVSITCHASQGISSNIGWLQQKPGKSFKGLIYHGTNLEDEVPSRFSGSGSGADYSLTIGSLESEDFADYYCVQYAQFPWTFGAGTKLEMKR
notes: immunization; mouse IgG2a/kappa
One may read the EC50 as the midpoint of the concentration-response curve. In the case of B1, in test [1], the EC50 is 22.8 nM and the “MFI (6.4 nM)” value amounted to 164000 MFI. This molecule came in with a 50% effective concentration (EC50) in test [2] of 1.2 nM.

B2: I23RB93 (antibody, mouse IgG2a, kappa, V domains shown)
VH: QVQLKESGPGLVQPSQSLSITCTVSGFSLTSYGVHWVRQSPGKGLEWLGVIWSGVSTDYNAAFISRLSISKDNSKSQVFFKMNSLQADDTAIYYCARSRGSYYFDYWGQGTTLTVSS
VL: DIKMTQSPATLSVTPGDSVSLFCRASQSISNNLHWYQQKSHESPRLLIKYASQSISGIPSRFSGSGSGTDFTLSINSVETEDFGMYFCQQSNSWPLTFGGGTKLEIKR
notes: as for B1
As for B2, the EC50 in test [1] turned out to be 8.9 nM; in test [2] it was 0.5 nM. Besides, the “MFI (6.4 nM)” value in test [1] was found to be 193000 MFI.

B3: I23RB83 (antibody, mouse IgG2a, kappa, V domains shown)
VH: DVQLQESGPGLVAPSQSLSITCTVSGFSLTNYDVHWVRQSPGKGLEWLGVIWSDGSTDYNAAFISRLSFSKDNSKRQVFFKMNSLQPDDTAIYYCARNNYYRYGRNPMDYWGQGTTVTVSS
VL: DIQMTQSPASQSASLGESVTITCLASQTIGSWLAWYQQKPGKSPQLLIYAATSLADGVPSRFSGSGSGTKFSFKISSLQAEDFVSYYCQQLYSSPLTFGGGTKLEIKR
notes: as for B1
On to B3, for which, in test [1], the half-maximal effective concentration (EC50) turned out to be 31.5 nM and the “MFI (6.4 nM)” value stood at 121000 MFI. The molecule also yielded an EC50 in test [2] of 0.7 nM.

B4: I23RB82 (antibody, mouse IgG2a, kappa, V domains shown)
VH: QVQLKESGPGLVAPSQSLSITCTVSGFSLTNYALHWFRQSPGKGLEWLGVIWSDGSTDYNSPFISRLSISKDNSKSQVFFKMNSLQADDTAIYYCARSRSNYGRWYFDVWGAGTTLTVSS
VL: QIVLSQSHKFMSTSVGDRVSITCKASQDVSTAVAWYQQKPGQSPKLLIYSAFYRYTGVPDRFTGSGSGTDFTFTISSVQAEDLAVYYCQQHYSTPYTFGGGTKLEIKR
notes: as for B1
Turning to B4, in test [1], the EC50 turned out to be 9.8 nM and the “MFI (6.4 nM)” value was 181000 MFI. This molecule came in with an EC50 in test [2] of 0.6 nM.

B5: I23RB81 (antibody, mouse IgG2a, kappa, V domains shown)
VH: DVQLQESGPGLVAPSQSLSITCTVSGFSLTSYAINWVRQPPGKGLEWLGVIWTGGGTNYNSALKSRLSISKDNSKSQLFLKMNSLQTDDTARYYCARNRDYSNYRWYFDVWGAGTSVTVSS
VL: DIVMTQSHKFMSTSVGDRVSIICKASQDVSTAVAWYQQKPGQSPKLLIYSASYRYTGVPDRFTGSGSGTDFTFTISSVQAEDLAVYYCQQHYSTPLTFGAGTRLEIKR
notes: as for B1
On to B5, for which, in test [1], a half-maximal response (EC50) required 7.2 nM and the “MFI (6.4 nM)” value turned out to be 181000 MFI. In test [2], this molecule showed an EC50 of 0.9 nM.

B6: I23RB98 (antibody, mouse IgG2a, kappa, V domains shown)
VH: EFQLQQSGPELVKPGASVKMSCKASGYTFTNYYMHWVKQSHGKTIEWIGYIYPNSGDTSYNQKFKGKATLTVDKSSSTAYMELRSLTSEDSAVYTCARFGGFYDAMDYWGQGTTVTVSS
VL: DIVLTQSPAIMSASLGERVTMTCTASSSVSSSYLHWYQQKPGSSPKLWIYSTSNLASGVPARFSGSGSGTSYSLTISSMEAEDAATYYCHQYHRSPFTFGSGTKLEMKR
notes: as for B1
Consider B6, for which, in test [1], the EC50 was found to be 28.7 nM and the “MFI (6.4 nM)” value was found to be 59400 MFI. Also, the response in test [2] was half-maximal at 1.9 nM (EC50).

B7: I23RB57 (antibody, mouse IgG2a, kappa, V domains shown)
VH: EFQLQQSGPELVKPGASVKMSCKASGYTFTNYYMHWVKQSHGKTIEWIGYIYPNSGDTSYNQKFKGKATLTVDKSSSTAYMELRSLTSEDSAVYNCARFGGFYDAMDYWGQGTSVTVSS
VL: DIVMTQSPAIMSASLGERVTMTCTASSSVSSSYLHWYQQKPGSSPKLWIYSTSNLASGVPARFSGSGSGTSYSLTISSMEAEDAATYYCHQYHRSPFTFGSGTKLEIKR
notes: as for B1
As to B7, in test [1], the EC50 is more than 50 nM and the “MFI (6.4 nM)” value came to 99600 MFI. Moreover, the half-maximal effective concentration (EC50) in test [2] worked out at 5 nM.

Source of the values: patent US20250179196A1 (Janssen / Centocor, published 2025).
